Measurements from patent publication US20250313621A1.

Assays:
[1] = biological target: Wildtype human PAR2 expressed on cells (human) (UniProt P55085); experiment: cell-based or functional assay
[2] = biological target: Cynomolgus PAR2 on BacMam-infected HEK293 cells (cynomolgus); experiment: flow cytometry on HEK293F-cynoPAR2 (3.0E+06 cells/mL, w/ NaN3), overnight at about 5 C, S/BG [continued]
[3] = biological target: Wildtype human PAR2 expressed on cells (human) (UniProt P55085); experiment: flow cytometry on HEK293F-humanPAR2 (3.0E+06 cells/mL, w/ NaN3), overnight at about 5 C, S/BG

Sequence of Wildtype human PAR2 expressed on cells (human) (P55085 37-397 limits assumed): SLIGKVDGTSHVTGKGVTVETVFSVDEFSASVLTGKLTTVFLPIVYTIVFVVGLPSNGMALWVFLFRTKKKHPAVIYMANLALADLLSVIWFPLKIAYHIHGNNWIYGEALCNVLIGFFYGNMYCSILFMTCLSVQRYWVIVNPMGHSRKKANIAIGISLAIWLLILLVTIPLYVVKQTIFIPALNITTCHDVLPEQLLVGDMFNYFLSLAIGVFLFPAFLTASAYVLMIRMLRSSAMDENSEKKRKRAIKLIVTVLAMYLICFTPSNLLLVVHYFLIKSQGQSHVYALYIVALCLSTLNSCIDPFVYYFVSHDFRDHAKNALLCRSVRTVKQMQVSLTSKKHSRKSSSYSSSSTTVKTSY

Binder	% Max Inhibition, PAR1 peptide SFLLR-NH2 challenge, IP-One [1]	EC50 (read off the curve) [2]	EC50 (read off the curve) [3]
Benchmark 2 (antibody, from another filing, V domains shown) VH: EVQLLESGGGLVQPGGSLRLSCAASGFTFSSYAMNWVRQAPGKGLEWVSTISYHGSHISYHDSVHHRFTISRDNSKNTLYLQMNSLRAEDTAVYYCARIHHDPMDVWGQGTLVTVSS VL: SIELTQPPSVSVSPGQTASITCSGDNLGKKYVQWYQQKPGQSPVLVIYDDSNRPSGIPERFSGSNSGNTATLTISGTQAMDEADYYCQTWDGNPTTGETNVFGGGTKLTVL	3%	–	–
Benchmark 4 IgG (antibody, from another filing, V domains shown) VH: EVQLVQSGAEVKKPGESLKISCKGSGYNFISHWIGWVRQMPGKGLEWMGMIYPGDSDTRYSPSFQGQVTISADKSINTAYLQWRSLKASDTAMYFCARHGGITGTTFYYDFGMDVWGQGTTVTVSS VL: SYELTQPPSVSVSPGQTARITCSGDALPKQYASWYQQKPGQAPLLVIYRDSERPSGLPERFSGSSSGTTVTLTISGVQAEDEADYYCQSADSGGSYVFGTGTKVTVL	–	1 nM	1 nM
Benchmark 3 IgG (antibody, from another filing, V domains shown) VH: QVQLVESGGGVVQPGRSLRLSCVASGFTFSRYGIHWVRQAPGKGLEWVIVISYDGINKYYADSVKGRFTISRDNSKNTVYLQMNSLRAEDTAVYYCAKGDFWSGYFDYWGQGTLVTVSS VL: DIVMTQTPLSSPVTLGQPASISCRSSQSLVHSDGNTYLSWLHQRPGQPPRLLIYKISNRFSGVPDRFSGSGAGTDFTLQISRVEAEDVGIYYCMQATQFPTFGGGTKVEIK	–	2 nM	1 nM
